Test results taken from article doi:10.1101/2024.12.19.629262 (bioRxiv, 2024).

T1: Cor1, subunit of complex III (S. cerevisiae, UniProt P07256 27-457)
T1 sequence: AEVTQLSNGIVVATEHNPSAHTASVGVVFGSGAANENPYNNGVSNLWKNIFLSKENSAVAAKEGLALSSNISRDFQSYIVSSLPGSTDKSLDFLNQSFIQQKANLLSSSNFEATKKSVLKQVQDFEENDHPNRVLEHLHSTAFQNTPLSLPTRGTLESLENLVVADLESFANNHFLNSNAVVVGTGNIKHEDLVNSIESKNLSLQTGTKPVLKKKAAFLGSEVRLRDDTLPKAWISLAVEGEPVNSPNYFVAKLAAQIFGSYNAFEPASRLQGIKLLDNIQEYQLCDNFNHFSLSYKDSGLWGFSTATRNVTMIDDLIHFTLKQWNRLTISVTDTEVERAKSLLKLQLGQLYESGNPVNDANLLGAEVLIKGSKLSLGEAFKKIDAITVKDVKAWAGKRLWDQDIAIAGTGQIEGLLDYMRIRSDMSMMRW

B1: Nde1, external mitochondrial NADH dehydrogenase (enzyme)
chain: EDKKVILQKVAPTTGVVAKQSFFKRTGKFTLKALLYSALAGTAYVSYSLYREANPSTQVPQSDTFPNGSKRKTLVILGSGWGSVSLLKNLDTTLYNVVVVSPRNYFLFTPLLPSTPVGTIELKSIVEPVRTIARRSHGEVHYYEAEAYDVDPENKTIKVKSSAKNNDYDLDLKYDYLVVGVGAQPNTFGTPGVYEYSSFLKEISDAQEIRLKIMSSIEKAASLSPKDPERARLLSFVVVGGGPTGVEFAAELRDYVDQDLRKWMPELSKEIKVTLVEALPNILNMFDKYLVDYAQDLFKEEKIDLRLKTMVKKVDATTITAKTGDGDIENIPYGVLVWATGNAPREVSKNLMTKLEEQDSRRGLLIDNKLQLLGAKGSIFAIGDCTFHPGLFPTAQVAHQEGEYLAQYFKKAYKIDQLNWKMTHAKDDSEVARLKNQIVKTQSQIEDFKYNHKGALAYIGSDKAIADLAVGEAKYRLAGSFTFLFWKSAYLAMCLSFRNRVLVAMDWAKVYFLGRDSSI
B2: Cox5a, subunit of complex IV (natural protein)
chain: AQTHALSNAAVMDLQSRWENMPSTEQQDIVSKLSERQKLPWAQLTEPEKQAVWYISYGEWGPRRPVLNKGDSSFIAKGVAAGLLFSVGLFAVVRMAGGQDAKTMNKEWQLKSDEYLKSKNANPWGGYSQVQSK

Legend:
[1] = molecular target: wild-type (untethered) III2IV2 respiratory supercomplex with Cox4-Flag (S. cerevisiae) (UniProt P07256); experiment: co-IP
[2] = molecular target: T1, Cor1, subunit of complex III; experiment: cryo-EM structure

Row | Binder | fold decrease of co-purified Nde1 (normalised to purified SC) against III2IV1 SC [1] [fold] | binding result [2]
1 | B1 | 2 | 
2 | B2 |  | binds
